Source: the Immune Epitope Database (IEDB)

How the values were obtained:
[1] = molecular target: HLA-A*68:02; assay: IEDB peptide-MHC binding, cellular MHC/competitive/fluorescence; ≥ and ≤ were set here for values at or beyond the usual limits of such assays
[2] = molecular target: HLA-A*02:01; assay: IEDB peptide-MHC binding, purified MHC/competitive/radioactivity; ≥ and ≤ were set here for values at or beyond the usual limits of such assays
[3] = molecular target: HLA-A*02:02; assay: as above
[4] = molecular target: HLA-A*02:03; assay: as above
[5] = molecular target: HLA-A*02:06; assay: as above
[6] = source organism: Mammarenavirus lassaense
[7] = source organism: Vaccinia virus WR
[8] = source organism: Hepacivirus hominis
[9] = source organism: Mammarenavirus choriomeningitidis
[10] = source organism: Mammarenavirus brazilense
[11] = source organism: Mammarenavirus machupoense
[12] = source organism: Influenza A virus

LNISGYNFSL
IC50 [1, 6]: 6000 nM
IC50 [2, 6]: 375 nM
IC50 [3, 6]: 16 nM
IC50 [4, 6]: 4550 nM
IC50 [5, 6]: 421 nM

LLLSICLGSL
IC50 ([1]; source organism: SARS-CoV1): 54900 nM
IC50 ([2]; source organism: SARS-CoV1): 45 nM
IC50 ([3]; source organism: SARS-CoV1): 20 nM
IC50 ([4]; source organism: SARS-CoV1): 104 nM
IC50 ([5]; source organism: SARS-CoV1): 258 nM

VIPDELIDV
IC50 [1, 7]: 52200 nM
IC50 [2, 7]: 229 nM
IC50 [3, 7]: 609 nM
IC50 [4, 7]: 44 nM
IC50 [5, 7]: 556 nM

ALVFLILCFT
IC50 ([1]; source organism: SARS-CoV1): 10500 nM
IC50 ([2]; source organism: SARS-CoV1): 161 nM
IC50 ([3]; source organism: SARS-CoV1): 209 nM
IC50 ([4]; source organism: SARS-CoV1): 1120 nM
IC50 ([5]; source organism: SARS-CoV1): 229 nM

KLPTWLGAAI
IC50 [1, 7]: 6370 nM
IC50 [2, 7]: 226 nM
IC50 [3, 7]: 103 nM
IC50 [4, 7]: 123 nM
IC50 [5, 7]: 295 nM

KLLIVLTCI
IC50 ([1]; source organism: SARS-CoV1): 5470 nM
IC50 ([2]; source organism: SARS-CoV1): 229 nM
IC50 ([3]; source organism: SARS-CoV1): 260 nM
IC50 ([4]; source organism: SARS-CoV1): 1940 nM
IC50 ([5]; source organism: SARS-CoV1): 449 nM

LLVQYGAKI
IC50 [1, 7]: 6430 nM
IC50 [2, 7]: 1770 nM
IC50 [3, 7]: 206 nM
IC50 [4, 7]: 358 nM
IC50 [5, 7]: 1140 nM

FLWLLWPVTL
IC50 ([1]; source organism: SARS-CoV1): 5220 nM
IC50 ([2]; source organism: SARS-CoV1): 0.98 nM
IC50 ([3]; source organism: SARS-CoV1): 2.7 nM
IC50 ([4]; source organism: SARS-CoV1): 14 nM
IC50 ([5]; source organism: SARS-CoV1): 28 nM

WIKDIMTST
IC50 [1, 7]: 9480 nM
IC50 [2, 7]: 948 nM
IC50 [3, 7]: 193 nM
IC50 [4, 7]: 12 nM
IC50 [5, 7]: 136 nM

KIVQLPKRGV
IC50 [1, 7]: 62600 nM
IC50 [2, 7]: 2240 nM
IC50 [3, 7]: 4120 nM
IC50 [4, 7]: 51 nM
IC50 [5, 7]: 2250 nM

TLFGRGVIDT
IC50 [1, 7]: 5730 nM
IC50 [2, 7]: 130 nM
IC50 [3, 7]: 199 nM
IC50 [4, 7]: 96 nM
IC50 [5, 7]: 3310 nM

WMMLLIAQA
IC50 [1, 8]: 15800 nM
IC50 [2, 8]: 75 nM
IC50 [3, 8]: 53 nM
IC50 [4, 8]: 47 nM
IC50 [5, 8]: 712 nM

ALALEQYGI
IC50 [1, 7]: 40400 nM
IC50 [2, 7]: 30 nM
IC50 [3, 7]: 0.69 nM
IC50 [4, 7]: 40 nM
IC50 [5, 7]: 548 nM

GLCNYGGIL
IC50 [1, 7]: ≥ 70000 nM
IC50 [2, 7]: 412 nM
IC50 [3, 7]: 98 nM
IC50 [4, 7]: 125 nM
IC50 [5, 7]: 1360 nM

KLLNMRDLI
IC50 [1, 7]: 30200 nM
IC50 [2, 7]: 18 nM
IC50 [3, 7]: 496 nM
IC50 [4, 7]: 329 nM
IC50 [5, 7]: 44 nM

LSAEELMSL
IC50 [1, 9]: 5820 nM
IC50 [2, 9]: 2210 nM
IC50 [3, 9]: 65 nM
IC50 [4, 9]: 706 nM
IC50 [5, 9]: 66 nM

YNYSLSAAV
IC50 [1, 10]: ≥ 70000 nM
IC50 [2, 10]: 539 nM
IC50 [3, 10]: 79 nM
IC50 [4, 10]: 67 nM
IC50 [5, 10]: 88 nM

GLLLLCVGV
IC50 [1, 8]: 49200 nM
IC50 [2, 8]: 43 nM
IC50 [3, 8]: 479 nM
IC50 [4, 8]: 285 nM
IC50 [5, 8]: 892 nM

LIYRQLTSNV
IC50 [1, 7]: 6390 nM
IC50 [2, 7]: 663 nM
IC50 [3, 7]: 79 nM
IC50 [4, 7]: 7.5 nM
IC50 [5, 7]: 169 nM

SLVYGIRCV
IC50 [1, 7]: 51400 nM
IC50 [2, 7]: 301 nM
IC50 [3, 7]: 2940 nM
IC50 [4, 7]: 3.8 nM
IC50 [5, 7]: 168 nM

GLLEWIFRA
IC50 [1, 10]: 53100 nM
IC50 [2, 10]: 1.2 nM
IC50 [3, 10]: 22 nM
IC50 [4, 10]: 226 nM
IC50 [5, 10]: 7.1 nM

FLLALLSCL
IC50 [1, 8]: 14000 nM
IC50 [2, 8]: 2.8 nM
IC50 [3, 8]: 2.6 nM
IC50 [4, 8]: 17 nM
IC50 [5, 8]: 24 nM

LVTSFLLMIV
IC50 ([1]; source organism: SARS-CoV1): 5740 nM
IC50 ([2]; source organism: SARS-CoV1): 775 nM
IC50 ([3]; source organism: SARS-CoV1): 31 nM
IC50 ([4]; source organism: SARS-CoV1): 12 nM
IC50 ([5]; source organism: SARS-CoV1): 161 nM

QLVKDESIQL
IC50 [1, 7]: 7940 nM
IC50 [2, 7]: 916 nM
IC50 [3, 7]: 157 nM
IC50 [4, 7]: 130 nM
IC50 [5, 7]: 1810 nM

SLGKSPLPSL
IC50 [1, 7]: 12800 nM
IC50 [2, 7]: 134 nM
IC50 [3, 7]: 4.1 nM
IC50 [4, 7]: 47 nM
IC50 [5, 7]: 1430 nM

KLLPQLPGV
IC50 [1, 8]: 42400 nM
IC50 [2, 8]: 1.7 nM
IC50 [3, 8]: 51 nM
IC50 [4, 8]: 5.2 nM
IC50 [5, 8]: 1.7 nM

LALTDVEKRI
IC50 [1, 7]: 14900 nM
IC50 [2, 7]: 1420 nM
IC50 [3, 7]: 199 nM
IC50 [4, 7]: 403 nM
IC50 [5, 7]: 2410 nM

AMIHKTYIDV
IC50 [1, 7]: 21200 nM
IC50 [2, 7]: 173 nM
IC50 [3, 7]: 335 nM
IC50 [4, 7]: 27 nM
IC50 [5, 7]: 206 nM

YLLGLSAIM
IC50 ([1]; source organism: SARS-CoV1): 12100 nM
IC50 ([2]; source organism: SARS-CoV1): 1.1 nM
IC50 ([3]; source organism: SARS-CoV1): 1.7 nM
IC50 ([4]; source organism: SARS-CoV1): 37 nM
IC50 ([5]; source organism: SARS-CoV1): 3.2 nM

ITLILSNKLL
IC50 [1, 7]: 6490 nM
IC50 [2, 7]: 2200 nM
IC50 [3, 7]: 1090 nM
IC50 [4, 7]: 4690 nM
IC50 [5, 7]: 3890 nM

YLVTRNADV
IC50 [1, 8]: ≥ 70000 nM
IC50 [2, 8]: 296 nM
IC50 [3, 8]: 55 nM
IC50 [4, 8]: 62 nM
IC50 [5, 8]: 4320 nM

KLLNMRDLIV
IC50 [1, 7]: ≥ 70000 nM
IC50 [2, 7]: 1.1 nM
IC50 [3, 7]: 194 nM
IC50 [4, 7]: 29 nM
IC50 [5, 7]: 2.8 nM

GLSQFTHTV
IC50 [1, 11]: 15100 nM
IC50 [2, 11]: 18 nM
IC50 [3, 11]: 5.3 nM
IC50 [4, 11]: 7.7 nM
IC50 [5, 11]: 332 nM

CLLTDTIESA
IC50 [1, 7]: 22200 nM
IC50 [2, 7]: 188 nM
IC50 [3, 7]: 53 nM
IC50 [4, 7]: 102 nM
IC50 [5, 7]: 92 nM

AIMDKNIML
IC50 [1, 12]: 13000 nM
IC50 [2, 12]: 75 nM
IC50 [3, 12]: 153 nM
IC50 [4, 12]: 802 nM
IC50 [5, 12]: 304 nM
